Test results taken from patent US20260209334A1 (MAX PLANCK GESELLSCHAFT ZUR F RDERUNG DER WISSENSCHAFTEN E V, published 2026).
Read-outs that look alike come from different tables or passages of the source. Values belong to the binder of their own block, whether it stands above or below them.

Columns and labels:
[1] = target: T1, human IL-17A with C-terminal Avi-tag, biotinylated, immobilized on BLI sensors (human, UniProt Q16552 24-155, biotin on the C-terminal Avi-tag (BirA)); assay: BLI, biotinylated IL-17A immobilized on streptavidin sensors, monovalent VHH as analyte (20, 100 nM), 2:1 heterogenous fit, low affinity component
T1 construct: also called biotinylated IL-17A; not shown: C-terminal Avi-tag

[2] = target: T1, human IL-17A with C-terminal Avi-tag, …; assay: BLI, biotinylated IL-17A immobilized, monovalent VHH as analyte; 2:1 heterogenous model, high affinity component
[3] = target: T1, human IL-17A with C-terminal Avi-tag, …; assay: BLI, biotinylated IL-17A immobilized on streptavidin sensors, monovalent VHH as analyte (25, 50, 100 nM), 2:1 heterogenous fit, high affinity component
[4] = target: T2, human IL-17F with C-terminal Avi-tag, biotinylated, immobilized on BLI sensors (human, UniProt Q96PD4 31-163, biotin on the C-terminal Avi-tag (BirA)); assay: BLI, biotinylated IL-17F immobilized on streptavidin sensors, monovalent VHH as analyte (20, 100 nM), 2:1 heterogenous fit, low affinity component
T2 construct: also called biotinylated IL-17F; not shown: C-terminal Avi-tag
T2 sequence: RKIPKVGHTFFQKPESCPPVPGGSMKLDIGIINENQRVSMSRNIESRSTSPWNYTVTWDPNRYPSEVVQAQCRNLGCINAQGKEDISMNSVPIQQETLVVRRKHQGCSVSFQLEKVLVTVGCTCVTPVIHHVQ

[5] = target: T3, recombinant human IL-17F (produced in HEK cells, Proteintech HZ-1116) (human, UniProt Q96PD4 31-163); assay: cell-based or functional assay
T3 sequence (looked up): T2 sequence

[6] = target: T2, human IL-17F with C-terminal Avi-tag, …; assay: BLI, biotinylated IL-17F immobilized, monovalent VHH as analyte; 2:1 heterogenous model, high affinity component
[7] = target: T3, recombinant human IL-17F (produced in …); assay: cell-based or functional assay; remark: listed apart in the source
[8] = target: recombinant human IL-17A (produced in HEK cells, Proteintech HZ-1113) (human, UniProt Q16552 24-155); assay: cell-based or functional assay
[9] = target: recombinant human IL-17A/F (produced in CHO cells, R&D Systems 5837-IL) (human, UniProt Q16552 24-155; Q96PD4 31-163, limits assumed); assay: cell-based or functional assay
[10] = target: T3, recombinant human IL-17F (produced in …); assay: cell-based or functional assay; remark: listed apart in the source
[11] = target: T1, human IL-17A with C-terminal Avi-tag, …; assay: BLI, biotinylated IL-17A immobilized, monovalent VHH as analyte
[12] = target: T2, human IL-17F with C-terminal Avi-tag, …; assay: BLI, biotinylated IL-17F immobilized, monovalent VHH as analyte

Chain of recombinant human IL-17A/F (produced in CHO cells, R&D Systems 5837-IL) (Q16552 24-155 limits assumed, chain 1 of 2, one chain of several): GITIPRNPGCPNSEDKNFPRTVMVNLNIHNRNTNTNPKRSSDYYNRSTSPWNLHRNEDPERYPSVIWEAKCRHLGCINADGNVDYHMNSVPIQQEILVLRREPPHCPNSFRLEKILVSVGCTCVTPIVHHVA
Chain of recombinant human IL-17A (produced in HEK cells, Proteintech HZ-1113) (Q16552 24-155 limits assumed): as the sequence (Q16552 24-155 limits assumed, chain 1 of 2, one chain of several) above

- KD2 [1]: 60 nM
- Kd [2]: 1 nM
- Kd [3]: 1 nM
- KD2 [4]: 60 nM
- IC50 (read off the curve), SEAP reporter, HEK-Blue IL-17 cells, 0.85 nM IL-17F [5]: ~5 nM
- Kd [6]: 6 nM
- Neutralization potency, ranking from 1 = the best to 4 (HEK-Blue IL-17 reporter cells) [7]: 4 rank
- Neutralization potency, ranking from 1 = the best to 4 (HEK-Blue IL-17 reporter cells) [8]: 2 rank
- Neutralization potency, ranking from 1 = the best to 4 (HEK-Blue IL-17 reporter cells) [9]: 3 rank
B1: Re42F08 (VHH)
VHH: QVQLVESGGGLVKAGGSLRLSCVVSGHTSEISAMGWYRQAPGKQRELVALITSRSGDTHYSDSVKGRFSISRDNAKNTMYLQMNSLNPDDTAVYYCVHNEPGHLYMAQGTQVTVSS
notes: Class B, first generation

- IC50 (read off the curve), SEAP reporter, HEK-Blue IL-17 cells, 0.85 nM IL-17F [10]: ~0.06 µg/mL
- Kd [11]: 0.15 nM
- Kd [12]: 12 nM
- Neutralization potency, ranking from 1 = the best to 4 (HEK-Blue IL-17 reporter cells) [7]: 4 rank
- Neutralization potency, ranking from 1 = the best to 4 (HEK-Blue IL-17 reporter cells) [8]: 2 rank
- Neutralization potency, ranking from 1 = the best to 4 (HEK-Blue IL-17 reporter cells) [9]: 2 rank
B2: VHH664 (VHH)
VHH: EVQLVESGGGLVQAGGSLRLSCAASGRTYDAMGWLRQAPGKEREFVAAISGSGDDTYYADSVKGRFTISKDNAGITMYLQMNSLKPEDTAVYYCATRRGLYYVWDSNDYENWGQGTQVTVSS
notes: Control VHH of Ablynx, disclosed in WO2012156219
